B1: Far upstream element-binding protein 1, residues 98 to 169; numbered along this chain, Q96AE4 (parent)
chain: RSVMTEEYKVPDGMVGFIIGRGGEQISRIQQESGCKIQIAPDSGGLPERSCMLTGTPESVQSAKRLLDQIVE

Variants of: B1
Assay: abundance fitness (aPCA) (normalised: wild type 0, dead -1); higher = more abundant; growth selection in yeast, the domain comes from the species named
Conditions: Homo sapiens

Abundance fitness: each site, then its substitutions
I39: V -0.032, Q -0.35, L -0.081, K -0.445, E -0.36, T -0.227, M -0.026, F 0.038, H -0.266, R -0.369, Y -0.207, C -0.109, W -0.109, N -0.415, D -0.51, A -0.252
S27: K 0.036, A 0.024, I -0.055, T -0.003, V -0.017, L -0.054, E 0.007, M -0.025, G -0.016, W -0.057, D -0.046, P -0.198, Y -0.07, H -0.012, C -0.042, R 0.014, Q 0.027, N -0.042
I29: G -0.943, A -0.226, S -0.682, V -0.031, T -0.211, F -0.144, C -0.179, E -0.781, Y -0.246, N -0.787, K -0.881, R -0.876, M -0.042, P -0.906, H -0.423, W -0.26, D -0.935, Q -0.915
C35: I -0.261, F -1.1, W -1.19, M -0.847, H -0.835, V -0.087, A -0.036, N -0.955, Q -0.936, R -0.935, E -0.835, P -0.986, G -0.489, K -0.945, L -0.554, Y -1.09, D -0.81, S -0.154, T -0.172
Q31: I -0.053, N -0.013, H -0.06, Y -0.09, T -0.024, G -0.089, D 0.034, R -0.014, M -0.061, W -0.153, S -0.025, A -0.026, F -0.089, E 0.028, C 0.001, L -0.043
K36: F -0.044, A -0.018, T -0.062, S -0.041, E -0.025, I -0.078, N -0.059, L -0.026, W -0.129, H -0.046, G -0.058, M -0.047, R -0.034, Q -0.04, V -0.022, C -0.031, D -0.02, P -0.666, Y -0.149
E24: L -0.108, N -0.163, F -0.013, H 0.026, I -0.035, M -0.093, T -0.035, W 0.171, C -0.082, S -0.026, D -0.064, Q -0.084, G -0.057, K -0.035, V -0.072, A -0.032
I26: V -0.104, R -0.17, T -0.092, P -0.515, H -0.139, C -0.103, L 0.023, W -0.158, S -0.239, A -0.132, Q -0.096, D -0.529, M -0.084
E32: V -0.05, K -0.077, M -0.067, C -0.096, P -0.796, F -0.208, A -0.071, L -0.092, Y -0.235, N -0.12, D -0.076, Q -0.059, G -0.166
G20: H -0.08, Q -0.178, R -0.112, M -0.174, F -0.176, W -0.321, V -0.253, Y -0.279, I -0.284, E 0.002, T -0.182, D -0.063, N -0.115, K -0.14, S -0.078, A -0.066, C -0.167
R21: P -0.027, E -0.251
